These results are taken from publication PMC6022668, “Biallelic UFM1 and UFC1 mutations expand the essential role of ufmylation in brain development” (Brain, 2018).

Where a chain is given by its changes, count along the chain named. In names and notes the source's numbering stands.

In this test the target is T1, GST-UBA5 (UniProt Q9GZZ9 1-404).
T1 construct: also called E1-like enzyme for ufmylation; source: recombinant, E. coli, purified on Glutathione Sepharose 4B (GST kept)
The test is described as follows: pull-down; GST-UBA5 bound to Glutathione Sepharose 4B, incubated 20 min at 4°C with purified proteins in 20 mM Tris-Cl pH 7.5, 150 mM NaCl, 1 mM EDTA, 1 mM DTT, 0.05% Nonidet P-40; NuPAGE and Coomassie staining. The note with it: both partners purified.

T1 sequence (Q9GZZ9 whole entry): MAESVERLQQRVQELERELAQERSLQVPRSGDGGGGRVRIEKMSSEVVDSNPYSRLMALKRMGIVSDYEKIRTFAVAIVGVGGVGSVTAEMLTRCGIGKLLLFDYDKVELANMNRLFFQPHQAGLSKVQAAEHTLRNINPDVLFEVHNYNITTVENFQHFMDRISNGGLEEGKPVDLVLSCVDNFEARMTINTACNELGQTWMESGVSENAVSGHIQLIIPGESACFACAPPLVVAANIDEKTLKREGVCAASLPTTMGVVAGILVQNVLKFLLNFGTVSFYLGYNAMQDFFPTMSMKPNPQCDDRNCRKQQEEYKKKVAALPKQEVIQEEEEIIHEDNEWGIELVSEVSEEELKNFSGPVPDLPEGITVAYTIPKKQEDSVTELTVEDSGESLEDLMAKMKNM

B1: UFC1 (wild type, recombinant) (enzyme, human, UniProt Q9Y3C8 1-167, looked up)
chain: MADEATRRVVSEIPVLKTNAGPRDRELWVQRLKEEYQSLIRYVENNKNADNDWFRLESNKEGTRWFGKCWYIHDLLKYEFDIEFDIPITYPTTAPEIAVPELDGKTAKMYRGGKICLTDHFKPLWARNVPKFGLAHLMALGLGPWLAVEIPDLIQKGVIQHKEKCNQ
notes: UFC1, human, the E2-like conjugating enzyme of UFM1; also called E2-like enzyme for ufmylation; source: recombinant, E. coli, purified on Glutathione Sepharose 4B, GST removed by PreScission protease
In the case of B1, the binding result is on record as “binds”.

B2: UFC1 T106I (recombinant) (enzyme, human, UniProt Q9Y3C8 1-167, looked up)
chain: B1 chain with T106I
notes: UFC1, human, with the patients' homozygous variant c.317C>T p.(Thr106Ile); A variant found in patients; also called p.(Thr106Ile); source: recombinant, E. coli, purified on Glutathione Sepharose 4B, GST removed by PreScission protease
As to B2, the binding result is reported as “binds”.
